The results in this text go back to the supplement of paper PMC9170038.

This data set concerns MS2 coat protein. As to the kind of experiment: apparent KD of MS2 coat protein; designed switch direction (-1 OFF switch, 1 ON switch): -1; higher = weaker reporter binding. A digest of the protocol: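 The reported apparent KD is a per-design median over clusters, from curve fits of normalised cluster fluorescence. Protein titrations used SNAP-549-labelled MS2 coat protein, doubled from 0.7 or 1.5 nM to 3 µM, in Tris-HCl pH 7.5 buffer with KCl, MgCl2, BSA, DTT, tRNA and Tween-20, with no input, 200 uM small-molecule ligand, or an oligonucleotide input. The RNA switches were transcribed on Illumina chips by stalled E. coli RNA polymerase.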

The mark [1] stands for this setting: input ligand: microRNA oligo, concentration not stated.
[2] abbreviates: Eterna round: R95, input ligand: FMN 200 uM.
The mark [3] stands for this setting: Eterna round: R95, input ligand: microRNA oligo, concentration not stated.
Where [4] appears, read: Eterna round: R95, input ligand: none.

For the sequence “CAUAGUUACUCAGGAUAUCUUACAUGAGGAUCACCCAUGUAAUAAAUGAGAAUUUCGAAUGUAUAAGAGAAGGGAGAAAUCUAC [Ostracism 58 - Jieux - Exclusion NG 2] (Eterna round: R96, puzzle: Exclusion NG 2)”, the “apparent KD of MS2 coat protein” value by setting is: (input ligand: FMN 200 uM) 15.9 nM; under setting [1], 14 nM; (input ligand: none) 17.6 nM.
For “CAUGAUCUUCGGAUCAUGUACAUGAGGAUCACCCAUGUGACGAGUUGAUCCUCAAACAAGCUUUUUGCUCGUCUUAU [Sensor v3 - Turn-off variant 1 - 18] (puzzle: Sensor v3, turn-off variant 1)”, the “apparent KD of MS2 coat protein” value reads like this: under setting [2], 17 nM; under setting [3], 10.6 nM; under setting [4], 17.5 nM.
On to “CAUGAUUGGCGAGGAUAUUGACCUAGUUGGCGACGAGAAGGCGCCUGUCACAUGAGGAUCACCCAUGUGAAUCUGGUGAAAGAG [Ex NG1 #90] (Eterna round: R96, puzzle: Exclusion NG 1)”, for which the “apparent KD of MS2 coat protein” value is, setting by setting: (input ligand: FMN 200 uM) 23.9 nM; under setting [1], 16.1 nM; (input ligand: none) 22.8 nM.
Regarding “CAUGAUUGGGAAGGAUAUUGACCUAGUUAGUGCCGAGAAGGUCCCUUUCACAUGAGGAUCACCCAUGUGAGACUGGUGUUCGAG [Ex NG1 #98] (Eterna round: R96, puzzle: Exclusion NG 1)”, the “apparent KD of MS2 coat protein” value under setting [1] is 19.6 nM.
For “CAUGGAACGUAGGAUAUCUCGCAGCCCGGCCGCAGAGAAGGACGUACAUGAGGAUCACCCAUGUAUGAUCCAAA [Zareinon] (puzzle: Exclusion 6)”, the “apparent KD of MS2 coat protein” value is 32.2 nM under setting [2], 19.8 nM under setting [3] and 26.2 nM under setting [4].
With “CAUGUGUAAGGAUAUGACAAUGGUAUCUUCGGAUACCAUUGUCAGAAGGUACAUGAGGAUCACCCAUGUAGAUC [Ex4-3: 16] (puzzle: Exclusion 4)”, under setting [3], the “apparent KD of MS2 coat protein” value was 48.6 nM.
Take “CAUUACUACAAGCUAAGGGACAUGAGGAUCACCCAUGUUCGUCUUAUUGAUCUAGGUACGCUGACGUACCUAGAUCU [JL-sv1-2.23 Brourd mod] (puzzle: Sensor v3, turn-off variant 1)”: the “apparent KD of MS2 coat protein” value turned out to be 15.8 nM under setting [2], 20.1 nM under setting [3] and 14.6 nM under setting [4].
As to “CAUUACUACAAGCUAUGGGACAUGAGGAUCACCCAUGUUCGUCUUAUUGAUCUAGGUACGCUGACGUACCUAGAUCU [JL-sv1-2.22 Brourd mod] (puzzle: Sensor v3, turn-off variant 1)”, the “apparent KD of MS2 coat protein” value by setting is: under setting [2], 16.6 nM; under setting [3], 21.6 nM; under setting [4], 15.7 nM.
For the sequence “CAUUAGCGGGCAGGAUAUCCUAAUAAGCAGAAUGGAGAAGGGCCAAGGUCAACUUGAGGAUCACCCAAGUCAUAAAGUUGGCCC [Mutated MS2 EX1.29] (Eterna round: R96, puzzle: Exclusion NG 1)”, the “apparent KD of MS2 coat protein” value amounted to 10.9 nM (input ligand: FMN 200 uM), 11.6 nM under setting [1] and 13.9 nM (input ligand: none).
For the sequence “CAUUAUGUUGAGGAUAUGCACCAGCUCACUGACGCAGAAGGCGACACAUGAGGAUCACCCAUGUCAGUUCGCGA [salish99_ex6_r004_428] (Eterna round: R97, puzzle: Exclusion 6)”, the “apparent KD of MS2 coat protein” value is, setting by setting: (input ligand: FMN 200 uM) 16.1 nM; (input ligand: none) 14.6 nM.
On the same counts, the results for “CAUUAUGUUGAGGAUAUGCGCCGGAAAACUGACGCAGAAGGCGACACAUGAGGAUCACCCAUGUCAGUUUGCGA [salish99_ex6_r004_425] (Eterna round: R97, puzzle: Exclusion 6)” are 70.1 nM and 28.3 nM.
On the same counts, the results for “CAUUAUGUUGAGGAUAUGCGCCGGCAAACUGACGCAGAAGGCGACACAUGAGGAUCACCCAUGUCAGUUCGCGA [salish99_ex6_r004_423] (Eterna round: R97, puzzle: Exclusion 6)” are 13.3 nM and 14.9 nM.
Consider “CAUUAUUAUCGAGGAUAUCCUAUUGAAAUUCUGGGAGAAGGCGGACUCAACAUGAGGAUCACCCAUGUGGGACGGAUGCUAGGG [Ex NG1 #28] (Eterna round: R96, puzzle: Exclusion NG 1)”, for which the “apparent KD of MS2 coat protein” value under setting [1] was 17.5 nM.
In the case of “CAUUAUUAUCGAGGAUAUCCUAUUGAAAUUCUGGGAGAAGGCGGACUCAACAUGAGGAUCACCCAUGUGGGACGGAUGCUGGGA [salish99_exng1_r04_604] (Eterna round: R96, puzzle: Exclusion NG 1)”, the “apparent KD of MS2 coat protein” value came to 18 nM (input ligand: FMN 200 uM), 20.9 nM under setting [1] and 21 nM (input ligand: none).
Consider “CAUUCAGAUGUCAGGAUAUCUGCGGGUAGGGCCGAAGAGAAGGGACAUGAGGAUCACCCAUGUACACUGCUAGA [BmEX4 B.28] (Eterna round: R97, puzzle: Brourd's mod of Exclusion 4)”, for which the “apparent KD of MS2 coat protein” value was found to be 22.9 nM (input ligand: FMN 200 uM) and 16 nM (input ligand: none).
As to “CCAAACAGAGGAUAUGCGAAUAAAUAAAACUUUUUUUUUUAACAUGAGGAUCACCCAUGUAGAAGGCUGAAACC [Ex2 #41] (Eterna round: R97, puzzle: Exclusion 2)”, the “apparent KD of MS2 coat protein” value was determined as 29.3 nM (input ligand: FMN 200 uM) and 27.6 nM (input ligand: none).
Consider “CCAAAUCAUGUAGGAUAUGCGUGGCGAAGCUAUGCAGAAGGACAUGAGGAUCACCCAUGUGCUUCCGUCUGCGUACAGACGGUA [JL ENG1 1.15] (Eterna round: R96, puzzle: Exclusion NG 1)”, for which the “apparent KD of MS2 coat protein” value (input ligand: FMN 200 uM) was 123 nM, the “apparent KD of MS2 coat protein” value under setting [1] amounted to 103 nM and the “apparent KD of MS2 coat protein” value (input ligand: none) was determined as 118 nM.
Turning to “CCAAAUUCAGGAUAUACGAUGGUGAGUUCGUCCUCAAGGCCACAUGAGGAUCACCCAUGUAGAAGGGAGGUCGG [Eternabot (L1) Solution 77] (Eterna round: R97, puzzle: Exclusion 2)”, the “apparent KD of MS2 coat protein” value runs as follows: (input ligand: FMN 200 uM) 130 nM; (input ligand: none) 35.6 nM.
On the same counts, the results for “CCAACCAGAGGAUAUGCGAAUAAAUAAAACUUUUUUUUUUAACAUGAGGAUCACCCAUGUAGAAGGCUGCAACC [Ex2 #39] (Eterna round: R97, puzzle: Exclusion 2)” are 32 nM and 34.8 nM.
As for “CCAAGAUAAGGAUAUUGAAGGUUCGACAUGAGGAUCACCCAUGUUAUGUUGGAAAAGGGACAAGAAGGUAUGAAAA [salish99_ex5_r4_215] (Eterna round: R97, puzzle: Exclusion 5)”, the “apparent KD of MS2 coat protein” value (input ligand: FMN 200 uM) came to 27.6 nM and the “apparent KD of MS2 coat protein” value (input ligand: none) was determined as 34.3 nM.
The matching figures for “CCAAGCUAUUUCAUAACAAACAUGAGGAUCACCCAUGUGUAAGCAAUUAUGUUUGGGCUCUUUAGUGCUCGUCUUAU [JR_STOV1_Sub046] (Eterna round: R97, puzzle: Sensor, turn-off variant 1)”: 19.2 nM and 19.2 nM.
“CCAAGCUGUGUGAGGAUAUGCUGGACCUUGGUUCAGCAGAAGGCACAUGAGGAUCACCCAUGUGAAAAGCUUGG [Mat - Exclusion 4 - JL Mod - D94] (puzzle: Brourd's mod of Exclusion 4)”: the “apparent KD of MS2 coat protein” value reads like this: under setting [2], 47.5 nM; under setting [3], 16.6 nM; under setting [4], 16.4 nM.
“CCAAGCUUAUUCAUUAACCACAUGAGGAUCACCCAUGUAUAGGCAAUUAUGACUGGCCCAUCUGGUGCUCGUCUUAU [Sensor-V1 #30] (Eterna round: R97, puzzle: Sensor, turn-off variant 1)”: the “apparent KD of MS2 coat protein” value reads like this: (input ligand: FMN 200 uM) 17 nM; (input ligand: none) 15.9 nM.
The matching figures for “CCAAGCUUAUUCAUUAACCACAUGAGGAUCACCCAUGUCUUGGCAAUUAUGACUUGCCCGUCAGGUGCUCGUCUUAU [Sensor-V1 #34] (Eterna round: R97, puzzle: Sensor, turn-off variant 1)”: 32.2 nM and 32.9 nM.
The matching figures for “CCAAGCUUUUUCAAUAACAACAUGAGGAUCACCCAUGUUUAAGCUAUUACUUUUGGGCUCUUUAGUGCUAGUCUUAU [JR_STOV1_Sub038] (Eterna round: R97, puzzle: Sensor, turn-off variant 1)”: 18 nM and 18.2 nM.
On the same counts, the results for “CCAAGGGAGGAGGAUAUACCCGCCAAUUGGCUUGUAGAAGGCCUCACAUGAGGAUCACCCAUGUGGGACAAAAC [Eternabot (Original) Solution 21] (Eterna round: R97, puzzle: Exclusion 6)” are 22.8 nM and 18.4 nM.
On to “CCAAGUUCAUAGGAUAUCAGACGGAUAAAGGUAUGAGAAGGAUGAACAUGAGGAUCACCCAUGUGCACUCCCGA [EX6 B.19] (Eterna round: R97, puzzle: Exclusion 6)”, for which the “apparent KD of MS2 coat protein” value stood at 34.1 nM (input ligand: FMN 200 uM) and 14.2 nM (input ligand: none).
On the same counts, the results for “CCAAUACAAGGAUAUGCGAUGCAUGUCAGGUUAGUAGACAGACAUGAGGAUCACCCAUGUAGAAGGUGUGUUGG [Eternabot (L2) Solution 55] (Eterna round: R97, puzzle: Exclusion 2)” are 75.6 nM and 41.4 nM.
As for “CCACGACAUGAGGAUCACCCAUGUGAGGAUAUGGCCUGAAAAGCGUGAGCAGUUUUUAUCAGAAGGCGCGUGGG [salish99_ex1_r4_064_4A's4U's] (Eterna round: R97, puzzle: Exclusion 1)”, the “apparent KD of MS2 coat protein” value (input ligand: FMN 200 uM) is 63.6 nM and the “apparent KD of MS2 coat protein” value (input ligand: none) amounted to 31.5 nM.
On the same counts, the results for “CCACGACAUGAGGAUCACCCAUGUGAGGAUAUGGCCUGUAAAGCGUGAGCUGAAUCAAUCAGAAGGCGCGUGGG [salish99_ex1_r4_058] (Eterna round: R97, puzzle: Exclusion 1)” are 119 nM and 46.1 nM.
